{"source": "the Human Domainome abundance scans (Beltran et al. 2025)", "parents": {"B1": {"name": "Zinc finger MYM-type protein 3, residues 405 to 444; numbered along this chain, Q14202 (parent)", "chain": "DATRCSICQKTGEVLHEVSNGSVVHRLCSDSCFSKFRANK"}, "B2": {"name": "Kinesin-like protein KIF16B, residues 1213 to 1273; numbered along this chain, Q96L93 (parent)", "chain": "ETWTVFRRYSRFREMHKTLKLKYAELAALEFPPKKLFGNKDERVIAERRSHLEKYLRDFFS"}}, "note": "± gives the uncertainty stated by the source."}
{"variants_of": "B1", "test": "abundance fitness (aPCA) (normalised: wild type 0, dead -1); higher = more abundant; growth selection in yeast, the domain comes from the species named", "details": "Homo sapiens"}
{"variant": "DATRCSICQKTGEVLHEVSNGSVVHRLCSDSCFSKFRANT", "note": "[K40T]", "abundance fitness": "0.138 ± 0.066"}
{"variant": "DATRCSICQKTGEVLHEVSNGSVVHRLCSDSCFSKFRANY", "note": "[K40Y]", "abundance fitness": "-0.072 ± 0.45"}
{"variant": "DATRCSICQKTGEVLHEVSNGSVVHRLCSDSCFSKFRANN", "note": "[K40N]", "abundance fitness": "0.15 ± 0.13"}
{"variant": "DATRCSICQKTGEVLHEVSNGSVVHRLCSDSCFSKFRANI", "note": "[K40I]", "abundance fitness": "0.012 ± 0.072"}
{"variant": "DATRCSICQKTGEVLHEVSNGSVVHRLCSDSCFSKFRANR", "note": "[K40R]", "abundance fitness": "0.023 ± 0.068"}
{"variant": "DATRCSICQKTGEVLHEVSNGSVVHRLCSDSCFSKFRANS", "note": "[K40S]", "abundance fitness": "0.119 ± 0.086"}
{"variant": "DATRCSICQKTGEVLHEVSNGSVVHRLCSDSCFSKFRANW", "note": "[K40W]", "abundance fitness": "-0.116 ± 0.14"}
{"variant": "DATRCSICQKTGEVLHEVSNGSVVHRLCSDSCFSKFRANC", "note": "[K40C]", "abundance fitness": "0.205 ± 0.16"}
{"variant": "DATRCSICQKTGEVLHEVSNGSVVHRLCSDSCFSKFRANF", "note": "[K40F]", "abundance fitness": "-0.128 ± 0.15"}
{"variant": "DATRCSICQKTGEVLHEVSNGSVVHRLCSDSCFSKFRANE", "note": "[K40E]", "abundance fitness": "0.077 ± 0.09"}
{"variant": "DATRCSICQKTGEVLHEVSNGSVVHRLCSDSCFSKFRANL", "note": "[K40L]", "abundance fitness": "-0.095 ± 0.11"}
{"variant": "DATRCSICQKTGEVLHEVSNGSVVHRLCSDSCFSKFRANG", "note": "[K40G]", "abundance fitness": "0.211 ± 0.064"}
{"variant": "DATRCSICQKTGEVLHEVSNGSVVHRLCSDSCFSKFRANV", "note": "[K40V]", "abundance fitness": "0.112 ± 0.1"}
{"variant": "DATRCSICQKTGEVLHEVSNGSVVHRLCSDSCFSKFRANA", "note": "[K40A]", "abundance fitness": "-0.047 ± 0.11"}
{"variant": "DATRCSICQKTGEVLHEVSNGSVVHRLCSDSCFSKFRANP", "note": "[K40P]", "abundance fitness": "-0.12 ± 0.17"}
{"variant": "DATRCSICQKTGEVLHEVSNGSVVHRLCSDSCFSKFRANH", "note": "[K40H]", "abundance fitness": "0.222 ± 0.08"}
{"variants_of": "B2", "test": "abundance fitness (aPCA) (normalised: wild type 0, dead -1); higher = more abundant; growth selection in yeast, the domain comes from the species named", "details": "Homo sapiens"}
{"variant": "EGWTVFRRYSRFREMHKTLKLKYAELAALEFPPKKLFGNKDERVIAERRSHLEKYLRDFFS", "note": "[T2G]", "abundance fitness": "-0.721 ± 0.28"}
{"variant": "EIWTVFRRYSRFREMHKTLKLKYAELAALEFPPKKLFGNKDERVIAERRSHLEKYLRDFFS", "note": "[T2I]", "abundance fitness": "0.085 ± 0.12"}
{"variant": "EEWTVFRRYSRFREMHKTLKLKYAELAALEFPPKKLFGNKDERVIAERRSHLEKYLRDFFS", "note": "[T2E]", "abundance fitness": "-0.18 ± 0.24"}
{"variant": "EWWTVFRRYSRFREMHKTLKLKYAELAALEFPPKKLFGNKDERVIAERRSHLEKYLRDFFS", "note": "[T2W]", "abundance fitness": "-0.146 ± 0.096"}
{"variant": "EKWTVFRRYSRFREMHKTLKLKYAELAALEFPPKKLFGNKDERVIAERRSHLEKYLRDFFS", "note": "[T2K]", "abundance fitness": "-0.409 ± 0.14"}
{"variant": "ELWTVFRRYSRFREMHKTLKLKYAELAALEFPPKKLFGNKDERVIAERRSHLEKYLRDFFS", "note": "[T2L]", "abundance fitness": "0.274 ± 0.19"}
{"variant": "EMWTVFRRYSRFREMHKTLKLKYAELAALEFPPKKLFGNKDERVIAERRSHLEKYLRDFFS", "note": "[T2M]", "abundance fitness": "-0.538 ± 0.09"}
{"variant": "ESWTVFRRYSRFREMHKTLKLKYAELAALEFPPKKLFGNKDERVIAERRSHLEKYLRDFFS", "note": "[T2S]", "abundance fitness": "-0.523 ± 0.12"}
{"variant": "EPWTVFRRYSRFREMHKTLKLKYAELAALEFPPKKLFGNKDERVIAERRSHLEKYLRDFFS", "note": "[T2P]", "abundance fitness": "0.047 ± 0.094"}
{"variant": "ENWTVFRRYSRFREMHKTLKLKYAELAALEFPPKKLFGNKDERVIAERRSHLEKYLRDFFS", "note": "[T2N]", "abundance fitness": "-0.286 ± 0.14"}
{"variant": "ECWTVFRRYSRFREMHKTLKLKYAELAALEFPPKKLFGNKDERVIAERRSHLEKYLRDFFS", "note": "[T2C]", "abundance fitness": "-0.5 ± 0.47"}
{"variant": "EVWTVFRRYSRFREMHKTLKLKYAELAALEFPPKKLFGNKDERVIAERRSHLEKYLRDFFS", "note": "[T2V]", "abundance fitness": "-0.165 ± 0.14"}
{"variant": "EQWTVFRRYSRFREMHKTLKLKYAELAALEFPPKKLFGNKDERVIAERRSHLEKYLRDFFS", "note": "[T2Q]", "abundance fitness": "-0.541 ± 0.27"}
{"variant": "EYWTVFRRYSRFREMHKTLKLKYAELAALEFPPKKLFGNKDERVIAERRSHLEKYLRDFFS", "note": "[T2Y]", "abundance fitness": "-0.352 ± 0.42"}
{"variant": "EAWTVFRRYSRFREMHKTLKLKYAELAALEFPPKKLFGNKDERVIAERRSHLEKYLRDFFS", "note": "[T2A]", "abundance fitness": "-0.687 ± 0.3"}
{"variant": "ETITVFRRYSRFREMHKTLKLKYAELAALEFPPKKLFGNKDERVIAERRSHLEKYLRDFFS", "note": "[W3I]", "abundance fitness": "-0.655 ± 0.18"}
{"variant": "ETMTVFRRYSRFREMHKTLKLKYAELAALEFPPKKLFGNKDERVIAERRSHLEKYLRDFFS", "note": "[W3M]", "abundance fitness": "-0.274 ± 0.094"}
{"variant": "ETDTVFRRYSRFREMHKTLKLKYAELAALEFPPKKLFGNKDERVIAERRSHLEKYLRDFFS", "note": "[W3D]", "abundance fitness": "-0.022 ± 0.12"}
{"variant": "ETETVFRRYSRFREMHKTLKLKYAELAALEFPPKKLFGNKDERVIAERRSHLEKYLRDFFS", "note": "[W3E]", "abundance fitness": "-0.088 ± 0.13"}
{"variant": "ETFTVFRRYSRFREMHKTLKLKYAELAALEFPPKKLFGNKDERVIAERRSHLEKYLRDFFS", "note": "[W3F]", "abundance fitness": "0.086 ± 0.15"}
{"variant": "ETGTVFRRYSRFREMHKTLKLKYAELAALEFPPKKLFGNKDERVIAERRSHLEKYLRDFFS", "note": "[W3G]", "abundance fitness": "0.039 ± 0.072"}
{"variant": "ETLTVFRRYSRFREMHKTLKLKYAELAALEFPPKKLFGNKDERVIAERRSHLEKYLRDFFS", "note": "[W3L]", "abundance fitness": "-0.45 ± 0.087"}
{"variant": "ETCTVFRRYSRFREMHKTLKLKYAELAALEFPPKKLFGNKDERVIAERRSHLEKYLRDFFS", "note": "[W3C]", "abundance fitness": "-0.761 ± 0.39"}
{"variant": "ETATVFRRYSRFREMHKTLKLKYAELAALEFPPKKLFGNKDERVIAERRSHLEKYLRDFFS", "note": "[W3A]", "abundance fitness": "-0.66 ± 0.14"}
{"variant": "ETKTVFRRYSRFREMHKTLKLKYAELAALEFPPKKLFGNKDERVIAERRSHLEKYLRDFFS", "note": "[W3K]", "abundance fitness": "-0.051 ± 0.092"}
{"variant": "NTWTVFRRYSRFREMHKTLKLKYAELAALEFPPKKLFGNKDERVIAERRSHLEKYLRDFFS", "note": "[E1N]", "abundance fitness": "-0.153 ± 0.42"}
{"variant": "MTWTVFRRYSRFREMHKTLKLKYAELAALEFPPKKLFGNKDERVIAERRSHLEKYLRDFFS", "note": "[E1M]", "abundance fitness": "-0.343 ± 0.48"}
{"variant": "VTWTVFRRYSRFREMHKTLKLKYAELAALEFPPKKLFGNKDERVIAERRSHLEKYLRDFFS", "note": "[E1V]", "abundance fitness": "-0.846 ± 0.21"}
{"variant": "LTWTVFRRYSRFREMHKTLKLKYAELAALEFPPKKLFGNKDERVIAERRSHLEKYLRDFFS", "note": "[E1L]", "abundance fitness": "-0.75 ± 0.38"}
{"variant": "GTWTVFRRYSRFREMHKTLKLKYAELAALEFPPKKLFGNKDERVIAERRSHLEKYLRDFFS", "note": "[E1G]", "abundance fitness": "-0.62 ± 0.39"}
{"variant": "WTWTVFRRYSRFREMHKTLKLKYAELAALEFPPKKLFGNKDERVIAERRSHLEKYLRDFFS", "note": "[E1W]", "abundance fitness": "-0.421 ± 0.27"}
{"variant": "DTWTVFRRYSRFREMHKTLKLKYAELAALEFPPKKLFGNKDERVIAERRSHLEKYLRDFFS", "note": "[E1D]", "abundance fitness": "-0.001 ± 0.12"}
{"variant": "KTWTVFRRYSRFREMHKTLKLKYAELAALEFPPKKLFGNKDERVIAERRSHLEKYLRDFFS", "note": "[E1K]", "abundance fitness": "-0.26 ± 0.14"}
